B1: fluoresceinated MERS2 peptide F-SVSKQAVCLMERHLRRVPGARRNELKVALSKELKER [modified: fluorescein (F-) printed at the N-terminus; fluorescein (F-) printed at the N-terminus] [T. brucei] / T. brucei MERS1(37–395), his-tagged [Trypanosoma brucei … (parent complex)
chain 1: SVSKQAVCLMERHLRRVPGARRNELKVALSKELKER
chain 2: LVPRGSMDDALRGELASALDTEGHALPFDVHLQQPHSSGDGTAGDTSTIQLEKLSHPPARFDLLTNSFVYKWQTKAALARKVSGPMREWAAELKYRTGVHIELEPTYPERLSENAVKGSGSDDGDGTQWGAYETADDVDITVYLFGSERGIFNCHKLMEAAIQQDPVYVRLGIFRRLANSSEVEWLMLRRINRELRPPDIPPISLKLPGKWTLLYERYKEAAIRTLWEETGITVDASNVYPTGHLYQTVPQYYWRVPVRYFVAEVPSDIRVEGPQVVPLQYMRNWDARLLRQSPDPIDRAWAQLADPATGCAWMKASMIDQLQKPLRGDNYMAIRYTPPPYSNLQEVVGLGDGSITPSTGNGEDAS

Variants of: B1
Assay: fluorescence polarization; value read at the highest MERS1 concentration point, about 13.3 µM (estimated from the x axis); parent: 53; read off a plot

| Variant | response [mP] |
| --- | --- |
| chain 1 SVSKQAVCLMERHLRRVPGARRNELKVAPSKPLKER | ~21 |

Reference: article PMC6913127, “Structures of MERS1, the 5′ processing enzyme of mitochondrial mRNAs in Trypanosoma brucei” (RNA, 2020)
